According to PMC5982138, “Disruption of the GDP-mannose synthesis pathway in Streptomyces coelicolor results in antibiotic hyper-susceptible phenotypes” (Microbiology, 2018):

Substrate: O=P(O)(O)O[C@H]1O[C@H](CO)[C@@H](O)[C@H](O)[C@@H]1O
Assay: purified protein
Format: biochemical, Streptomyces coelicolor
Conditions: GTP as co-substrate; cooperative (Hill fit)

B1: SCO4238 (Streptomyces coelicolor A3(2)) (protein)
chain: MTDPNAASRRPVQAVVLAGGQGSRLRPYTDDRPKPMVEIPGTGTPIIGHQLAWLAEEGVTDVVVSCGHLAEVLQKWLESADLPLSVTTVVETEPLGRGGGLRYAAAHLPHPDRSWYATNGDIWTRFSLRDMADFHAERDAVATLALARPRLPWGAVQTDGFGHITDFIEAPPSTFEINAGVYVFSPEFAAMLPERGDHERTTFPRLAREHRLAGFPIPQGSYWRAIDTAKDLTEAARELAALSGR
B1 gave a Km of 180 ± 30 µM.
